Data: patent US20140193915, “COMPOSITIONS AND METHODS FOR CUSTOM SITE-SPECIFIC DNA RECOMBINASES” (Monsanto Technology, LLC, published 2014)

T1: sN-TALER IIb-1 (synthetic)
T1 chain: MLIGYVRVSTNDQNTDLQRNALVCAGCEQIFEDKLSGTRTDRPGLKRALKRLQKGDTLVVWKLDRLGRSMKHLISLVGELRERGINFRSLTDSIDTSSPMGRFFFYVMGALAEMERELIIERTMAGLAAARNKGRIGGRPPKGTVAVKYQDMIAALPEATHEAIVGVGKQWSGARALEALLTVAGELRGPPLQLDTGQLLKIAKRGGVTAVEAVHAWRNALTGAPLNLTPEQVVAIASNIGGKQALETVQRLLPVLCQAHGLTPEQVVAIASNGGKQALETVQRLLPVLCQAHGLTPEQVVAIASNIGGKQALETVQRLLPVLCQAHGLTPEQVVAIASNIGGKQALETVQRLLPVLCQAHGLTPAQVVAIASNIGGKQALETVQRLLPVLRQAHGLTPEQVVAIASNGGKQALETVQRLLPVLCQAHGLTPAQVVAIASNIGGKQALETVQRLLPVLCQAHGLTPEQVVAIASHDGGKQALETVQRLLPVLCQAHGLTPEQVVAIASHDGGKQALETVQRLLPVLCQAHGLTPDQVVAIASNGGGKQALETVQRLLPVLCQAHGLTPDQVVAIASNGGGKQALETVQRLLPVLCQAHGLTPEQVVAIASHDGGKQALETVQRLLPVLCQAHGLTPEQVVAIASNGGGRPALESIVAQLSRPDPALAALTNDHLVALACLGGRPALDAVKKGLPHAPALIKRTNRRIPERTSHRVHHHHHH

T2: pN-TALER IV-1-EE3 (synthetic)
T2 chain: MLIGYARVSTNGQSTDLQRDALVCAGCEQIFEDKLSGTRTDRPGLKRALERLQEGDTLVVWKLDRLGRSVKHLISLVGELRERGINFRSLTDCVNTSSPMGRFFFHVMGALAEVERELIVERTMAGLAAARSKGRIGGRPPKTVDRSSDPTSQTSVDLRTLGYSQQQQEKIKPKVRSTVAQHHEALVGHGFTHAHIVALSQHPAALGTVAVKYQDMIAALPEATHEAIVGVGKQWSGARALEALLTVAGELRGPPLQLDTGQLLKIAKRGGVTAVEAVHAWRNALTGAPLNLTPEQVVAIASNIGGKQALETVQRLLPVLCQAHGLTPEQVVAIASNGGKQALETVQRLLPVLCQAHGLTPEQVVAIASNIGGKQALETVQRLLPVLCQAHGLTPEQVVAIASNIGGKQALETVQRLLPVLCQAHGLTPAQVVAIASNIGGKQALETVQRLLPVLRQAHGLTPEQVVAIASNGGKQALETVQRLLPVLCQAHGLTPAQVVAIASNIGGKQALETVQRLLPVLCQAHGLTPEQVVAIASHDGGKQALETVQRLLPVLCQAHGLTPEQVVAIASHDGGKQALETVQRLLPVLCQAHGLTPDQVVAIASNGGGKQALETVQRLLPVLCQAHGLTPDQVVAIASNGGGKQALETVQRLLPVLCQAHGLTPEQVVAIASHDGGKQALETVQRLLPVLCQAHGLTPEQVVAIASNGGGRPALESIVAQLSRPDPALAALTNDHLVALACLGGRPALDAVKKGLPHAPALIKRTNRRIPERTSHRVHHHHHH

T3: pN-TALER IV-5-EE2 (synthetic)
T3 chain: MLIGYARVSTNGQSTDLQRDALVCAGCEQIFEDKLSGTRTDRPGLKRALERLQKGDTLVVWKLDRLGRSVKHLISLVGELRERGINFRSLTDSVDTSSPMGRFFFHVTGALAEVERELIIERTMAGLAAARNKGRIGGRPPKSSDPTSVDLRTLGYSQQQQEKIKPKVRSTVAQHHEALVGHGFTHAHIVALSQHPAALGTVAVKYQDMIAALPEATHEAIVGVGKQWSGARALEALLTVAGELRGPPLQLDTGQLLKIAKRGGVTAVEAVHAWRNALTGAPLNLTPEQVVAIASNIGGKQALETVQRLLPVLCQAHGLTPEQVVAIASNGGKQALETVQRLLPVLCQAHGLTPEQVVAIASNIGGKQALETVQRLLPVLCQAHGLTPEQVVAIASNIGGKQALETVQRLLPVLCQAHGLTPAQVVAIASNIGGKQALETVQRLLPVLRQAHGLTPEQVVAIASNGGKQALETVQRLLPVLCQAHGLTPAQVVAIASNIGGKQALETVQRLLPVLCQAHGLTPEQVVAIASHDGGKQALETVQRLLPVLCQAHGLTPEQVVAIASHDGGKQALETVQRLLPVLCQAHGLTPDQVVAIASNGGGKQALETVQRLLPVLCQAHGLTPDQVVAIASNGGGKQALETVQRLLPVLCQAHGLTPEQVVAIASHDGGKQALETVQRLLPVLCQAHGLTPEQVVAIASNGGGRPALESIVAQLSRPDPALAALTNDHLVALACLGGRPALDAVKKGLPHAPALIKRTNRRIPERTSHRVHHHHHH

B1: Gin18TALE+0 (dsDNA)
DNA 1: AGAAGGTATTTATACCAAAACCATGGTTTACATATAAATACCTTCT
DNA 2: AGAAGGTATTTATATGTAAACCATGGTTTTGGTATAAATACCTTCT
B2: Gin20TALE+0 (dsDNA)
DNA 1: AGAAGGTATTTATATCCAAAACCATGGTTTACAGTATAAATACCTTCT
DNA 2: AGAAGGTATTTATACTGTAAACCATGGTTTTGGATATAAATACCTTCT

Experiments:
Experiment in all cases: cell_activity; E. coli
Conditions in all cases: tags: 6-His
sN-TALER IIb-1 = target: T1, sN-TALER IIb-1
Outline: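 DH5alpha cells co-transformed (heat shock or electroporation) with N-TALER expression and reporter plasmids at ~1:1 mass ratio; reporter alone as control. Plated on chloramphenicol/kanamycin/X-gal, grown 37° C. for 18 to 36 hours; recombination scored by colony colour.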

pN-TALER IV-1-EE3 = target: T2, pN-TALER IV-1-EE3
pN-TALER IV-5-EE2 = target: T3, pN-TALER IV-5-EE2

Row | Binder | activity (sN-TALER IIb-1) [score] | activity (pN-TALER IV-1-EE3) [score] | activity (pN-TALER IV-5-EE2) [score]
1 | B1 | 3 | 3 | –
2 | B2 | – | – | 1
